Test results published in US20110262447A1.

Biological target: wild-type p53 core domain (human) (UniProt P04637)
Experiment: ELISA, plates coated with recombinant core domain

wild-type p53 core domain (human), sequence (P04637 94-312): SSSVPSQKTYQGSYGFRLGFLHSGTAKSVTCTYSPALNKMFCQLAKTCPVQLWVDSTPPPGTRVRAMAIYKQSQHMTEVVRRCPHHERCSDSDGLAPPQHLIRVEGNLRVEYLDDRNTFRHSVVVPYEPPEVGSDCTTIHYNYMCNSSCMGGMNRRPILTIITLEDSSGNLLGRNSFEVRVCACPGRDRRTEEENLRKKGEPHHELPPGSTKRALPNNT

O.D.: 1.2 O.D.
Substance: mAb 1620 (antibody)
